Columns and labels:
[1] = biological target: FGF receptor/BKL complex on HEK293 cells overexpressing human beta-klotho (BKL) (human) (UniProt Q86Z14); experiment: cell-based or functional assay
[2] = biological target: FGFR1c receptor/BKL complex on differentiated mouse 3T3-L1 adipocytes (mouse) (UniProt P16092); experiment: cell-based or functional assay
Chain of FGFR1c receptor/BKL complex on differentiated mouse 3T3-L1 adipocytes (mouse) (P16092 22-822, chain 1 of 2): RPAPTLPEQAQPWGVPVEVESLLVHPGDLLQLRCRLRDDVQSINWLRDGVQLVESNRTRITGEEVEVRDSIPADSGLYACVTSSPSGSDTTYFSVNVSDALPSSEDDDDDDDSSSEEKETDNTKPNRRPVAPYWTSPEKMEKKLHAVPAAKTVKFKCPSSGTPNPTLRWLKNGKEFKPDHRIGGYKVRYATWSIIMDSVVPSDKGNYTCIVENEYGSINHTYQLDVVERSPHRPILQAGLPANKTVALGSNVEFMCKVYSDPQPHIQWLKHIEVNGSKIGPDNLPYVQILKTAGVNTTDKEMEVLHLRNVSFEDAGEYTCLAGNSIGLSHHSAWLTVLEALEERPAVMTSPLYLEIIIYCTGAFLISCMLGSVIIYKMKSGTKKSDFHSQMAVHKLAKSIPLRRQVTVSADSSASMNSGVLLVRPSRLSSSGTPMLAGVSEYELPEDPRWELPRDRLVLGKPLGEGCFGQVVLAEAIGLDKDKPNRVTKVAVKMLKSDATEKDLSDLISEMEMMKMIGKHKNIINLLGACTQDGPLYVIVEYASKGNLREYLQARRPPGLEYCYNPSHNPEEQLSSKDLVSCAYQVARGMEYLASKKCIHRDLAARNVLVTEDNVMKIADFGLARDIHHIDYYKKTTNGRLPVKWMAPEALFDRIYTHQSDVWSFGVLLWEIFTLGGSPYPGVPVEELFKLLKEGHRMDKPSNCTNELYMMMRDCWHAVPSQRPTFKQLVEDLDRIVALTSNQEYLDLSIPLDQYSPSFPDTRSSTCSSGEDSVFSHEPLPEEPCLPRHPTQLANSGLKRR
Chain of FGFR1c receptor/BKL complex on differentiated mouse 3T3-L1 adipocytes (mouse) (Q99N32 whole entry, chain 2 of 2, further chain): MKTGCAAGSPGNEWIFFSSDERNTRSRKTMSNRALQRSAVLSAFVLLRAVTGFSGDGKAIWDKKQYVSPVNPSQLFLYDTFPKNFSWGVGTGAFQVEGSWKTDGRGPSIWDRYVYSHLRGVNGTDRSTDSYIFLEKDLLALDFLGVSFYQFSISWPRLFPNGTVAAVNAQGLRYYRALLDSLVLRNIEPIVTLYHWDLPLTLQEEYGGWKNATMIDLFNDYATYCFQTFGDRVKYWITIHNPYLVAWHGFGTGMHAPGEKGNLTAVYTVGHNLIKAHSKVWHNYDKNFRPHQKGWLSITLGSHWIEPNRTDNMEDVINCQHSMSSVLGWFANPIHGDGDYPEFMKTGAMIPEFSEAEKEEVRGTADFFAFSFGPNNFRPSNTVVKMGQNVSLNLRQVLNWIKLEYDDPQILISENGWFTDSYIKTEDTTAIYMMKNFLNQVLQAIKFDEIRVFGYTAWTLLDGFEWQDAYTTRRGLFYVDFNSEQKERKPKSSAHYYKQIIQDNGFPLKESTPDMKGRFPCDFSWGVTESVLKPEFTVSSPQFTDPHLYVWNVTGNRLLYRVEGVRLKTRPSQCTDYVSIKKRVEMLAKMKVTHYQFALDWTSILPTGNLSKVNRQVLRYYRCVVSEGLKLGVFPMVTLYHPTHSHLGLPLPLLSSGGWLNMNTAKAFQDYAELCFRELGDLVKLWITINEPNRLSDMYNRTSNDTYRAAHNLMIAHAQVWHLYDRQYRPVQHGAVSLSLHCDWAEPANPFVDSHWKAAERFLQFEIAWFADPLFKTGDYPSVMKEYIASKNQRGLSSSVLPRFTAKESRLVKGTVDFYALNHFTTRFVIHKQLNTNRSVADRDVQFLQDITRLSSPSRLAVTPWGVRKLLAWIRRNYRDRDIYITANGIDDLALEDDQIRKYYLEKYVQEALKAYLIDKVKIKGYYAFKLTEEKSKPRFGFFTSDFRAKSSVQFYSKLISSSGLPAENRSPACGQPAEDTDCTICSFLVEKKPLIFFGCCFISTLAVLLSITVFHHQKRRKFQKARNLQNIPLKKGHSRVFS

Chain of FGF receptor/BKL complex on HEK293 cells overexpressing human beta-klotho (BKL) (human) (Q86Z14 whole entry, one chain of several): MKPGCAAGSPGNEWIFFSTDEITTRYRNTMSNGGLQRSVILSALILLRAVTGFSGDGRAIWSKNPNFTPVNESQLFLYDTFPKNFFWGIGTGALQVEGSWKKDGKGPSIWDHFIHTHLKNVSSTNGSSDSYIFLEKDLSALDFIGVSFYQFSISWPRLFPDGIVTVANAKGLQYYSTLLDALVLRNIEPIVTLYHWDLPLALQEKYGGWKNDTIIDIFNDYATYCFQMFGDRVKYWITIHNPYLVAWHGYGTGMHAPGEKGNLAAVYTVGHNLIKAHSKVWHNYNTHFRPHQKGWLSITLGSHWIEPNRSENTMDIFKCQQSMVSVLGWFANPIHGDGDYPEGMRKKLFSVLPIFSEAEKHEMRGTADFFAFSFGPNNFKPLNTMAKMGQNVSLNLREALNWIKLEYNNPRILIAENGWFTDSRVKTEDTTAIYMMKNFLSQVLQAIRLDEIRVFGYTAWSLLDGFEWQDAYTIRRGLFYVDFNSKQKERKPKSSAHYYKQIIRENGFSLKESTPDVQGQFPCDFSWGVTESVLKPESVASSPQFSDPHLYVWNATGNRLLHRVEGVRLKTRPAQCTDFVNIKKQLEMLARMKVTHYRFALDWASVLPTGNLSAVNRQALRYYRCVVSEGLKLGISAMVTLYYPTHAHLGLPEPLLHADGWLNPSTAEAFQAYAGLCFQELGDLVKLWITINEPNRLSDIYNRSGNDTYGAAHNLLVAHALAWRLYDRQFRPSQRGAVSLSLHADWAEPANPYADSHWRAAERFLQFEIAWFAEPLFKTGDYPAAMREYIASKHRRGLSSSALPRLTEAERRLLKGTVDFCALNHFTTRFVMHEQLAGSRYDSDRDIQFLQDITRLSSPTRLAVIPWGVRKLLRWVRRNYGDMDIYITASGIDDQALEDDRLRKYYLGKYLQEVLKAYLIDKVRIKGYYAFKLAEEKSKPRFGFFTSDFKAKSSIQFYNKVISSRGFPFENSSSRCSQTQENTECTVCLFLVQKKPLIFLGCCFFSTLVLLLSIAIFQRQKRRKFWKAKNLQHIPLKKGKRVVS
Chain of S{Beta-178}-2-aminoethylsulfanyl-Ala[Gln121,Leu168,Cys178]FGF21 (Q9NSA1 other isoform, or with tags, fused parts or gaps limits assumed): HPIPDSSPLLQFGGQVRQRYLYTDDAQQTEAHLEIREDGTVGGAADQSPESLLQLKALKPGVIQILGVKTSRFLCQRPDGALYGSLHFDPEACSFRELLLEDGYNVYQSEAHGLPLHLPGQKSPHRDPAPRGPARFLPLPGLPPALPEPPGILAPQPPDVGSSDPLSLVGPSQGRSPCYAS
Chain of S{Beta-179}-2-aminoethylsulfanyl-Ala[Gln121,Leu168,Cys179]FGF21 (Q9NSA1 other isoform, or with tags, fused parts or gaps limits assumed): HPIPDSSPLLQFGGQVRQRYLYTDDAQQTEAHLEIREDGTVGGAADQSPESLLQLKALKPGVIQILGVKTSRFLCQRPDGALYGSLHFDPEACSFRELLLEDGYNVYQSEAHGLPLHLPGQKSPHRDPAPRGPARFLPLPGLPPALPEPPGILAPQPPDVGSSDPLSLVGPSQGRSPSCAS
Chain of S{Beta-180}-2-aminoethylsulfanyl-Ala[Gln121,Leu168,Cys180,des181]FGF21 (Q9NSA1 other isoform, or with tags, fused parts or gaps limits assumed): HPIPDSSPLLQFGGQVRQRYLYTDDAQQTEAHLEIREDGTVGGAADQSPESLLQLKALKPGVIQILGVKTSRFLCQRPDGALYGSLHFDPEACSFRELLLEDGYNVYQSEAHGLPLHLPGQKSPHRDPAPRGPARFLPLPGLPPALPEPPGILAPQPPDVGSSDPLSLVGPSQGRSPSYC
Chain of Ala[Gln121,Leu168]FGF21 (Q9NSA1 other isoform, or with tags, fused parts or gaps limits assumed): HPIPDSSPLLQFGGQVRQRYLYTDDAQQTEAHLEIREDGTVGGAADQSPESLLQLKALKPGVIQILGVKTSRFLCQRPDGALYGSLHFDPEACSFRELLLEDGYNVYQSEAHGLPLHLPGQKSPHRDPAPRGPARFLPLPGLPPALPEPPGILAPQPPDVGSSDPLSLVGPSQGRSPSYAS
Chain of S{Beta-180}-2-aminoethylsulfanyl-Ala[Gln121,Leu168,Cys180]FGF21 (Q9NSA1 other isoform, or with tags, fused parts or gaps limits assumed): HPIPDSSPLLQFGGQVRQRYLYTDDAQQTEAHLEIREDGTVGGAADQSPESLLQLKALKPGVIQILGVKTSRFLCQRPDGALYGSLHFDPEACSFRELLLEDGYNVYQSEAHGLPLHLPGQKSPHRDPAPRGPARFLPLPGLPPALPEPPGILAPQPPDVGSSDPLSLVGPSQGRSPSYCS
Chain of S{Beta-181}-2-aminoethylsulfanyl-Ala[Gln121,Leu168,Cys181]FGF21 (Q9NSA1 other isoform, or with tags, fused parts or gaps limits assumed): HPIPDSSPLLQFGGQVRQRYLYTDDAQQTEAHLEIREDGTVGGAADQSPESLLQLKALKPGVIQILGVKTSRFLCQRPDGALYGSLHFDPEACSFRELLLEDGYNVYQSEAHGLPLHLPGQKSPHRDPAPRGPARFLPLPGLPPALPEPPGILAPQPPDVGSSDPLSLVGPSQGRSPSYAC
Chain of S{Beta-176}-2-aminoethylsulfanyl-Ala[Gln121,Leu168,Cys176]FGF21 (Q9NSA1 other isoform, or with tags, fused parts or gaps limits assumed): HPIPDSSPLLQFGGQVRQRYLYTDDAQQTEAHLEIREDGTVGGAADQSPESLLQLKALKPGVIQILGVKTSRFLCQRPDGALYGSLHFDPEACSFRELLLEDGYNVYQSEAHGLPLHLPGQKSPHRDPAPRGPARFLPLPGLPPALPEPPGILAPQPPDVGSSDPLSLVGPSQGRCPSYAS
Chain of Ala[Gln121,Leu168,Cys177]FGF21 (Q9NSA1 other isoform, or with tags, fused parts or gaps limits assumed): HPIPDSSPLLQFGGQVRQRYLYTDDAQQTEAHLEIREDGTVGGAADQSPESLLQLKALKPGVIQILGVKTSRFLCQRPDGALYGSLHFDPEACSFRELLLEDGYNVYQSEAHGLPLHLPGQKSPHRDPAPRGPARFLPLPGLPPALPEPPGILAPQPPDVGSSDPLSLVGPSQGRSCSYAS

Substance | EC50 (0.1% HSA) (nM), pERK, HEK293/BKL cells [1] [nM] | EC50 (nM), pERK, HEK293/BKL cells [1] [nM] | Glucose uptake EC50 (nM), 3T3-L1 adipocytes [2] [nM] | Glucose uptake Emax (%), 3T3-L1 adipocytes [2] [%]
S{Beta-179}-[2-[2-[[2-[2-[2-[[2-[2-[2-[[(4S)-4-carboxy-4-(15-carboxypentadecanoyl-amino)butanoyl]amino]ethoxy]ethoxy]acetyl]amino]ethoxy]ethoxy]acetyl]amino]-ethylamino]-2-oxoethyl]-Ala[Gln121,Leu168,Cys179]FGF21 (from UniProt Q9NSA1 29-209) (ligand) | 134 | 107 | 107 | 54
S{Beta-180}-[2-[2-[[2-[2-[2-[[2-[2-[2-[[(4S)-4-carboxy-4-(17-carboxyheptadecanoyl-amino)butanoyl]amino]ethoxy]ethoxy]acetyl]amino]ethoxy]ethoxy]acetyl]amino]-ethylamino]-2-oxoethyl]-Ala[Gln121,Leu168,Cys180,des181]FGF21 (from UniProt Q9NSA1 29-207) (ligand) | 20 | 8 | 8 | 71
S{Beta-180}-[2-[2-[[2-[2-[2-[[2-[2-[2-[[(4S)-4-carboxy-4-(17-carboxyheptadecanoyl-amino)butanoyl]amino]ethoxy]ethoxy]acetyl]amino]ethoxy]ethoxy]acetyl]amino]-ethylamino]-2-oxoethyl]-Ala[Gln121,Leu168,Cys180]FGF21 (from UniProt Q9NSA1 29-209) (ligand) | 48 | 5 | 32 | 109
S{Beta-180}-2-aminoethylsulfanyl-Ala[Gln121,Leu168,Cys180]FGF21 (from UniProt Q9NSA1 29-209) (ligand) |  | 2.3 | 2.6 | 102
S{Beta-179}-2-aminoethylsulfanyl-Ala[Gln121,Leu168,Cys179]FGF21 (from UniProt Q9NSA1 29-209) (ligand) |  | 69 | 25 | 77
S{Beta-181}-[2-[2-[[2-[2-[2-[[2-[2-[2-[[(4S)-4-carboxy-4-(19-carboxynonadecanoyl-amino)butanoyl]amino]ethoxy]ethoxy]acetyl]amino]ethoxy]ethoxy]acetyl]amino]-ethylamino]-2-oxoethyl]-Ala[Gln121,Leu168,Cys181]FGF21 (from UniProt Q9NSA1 29-208) (ligand) | 434 | 58 | 410 | 57
S{Beta-181}-2-aminoethylsulfanyl-Ala[Gln121,Leu168,Cys181]FGF21 (from UniProt Q9NSA1 29-208) (ligand) |  | 27 | 5 | 74
S{Beta-178}-2-aminoethylsulfanyl-Ala[Gln121,Leu168,Cys178]FGF21 (from UniProt Q9NSA1 29-209) (ligand) |  | 105 | 50 | 69
Ala[Gln121,Leu168]FGF21 (from UniProt Q9NSA1 29-209) (ligand) |  | 2 | 3.1 | 85
S{Beta-180}-[2-[2-[[2-[2-[2-[[2-[2-[2-[[(4S)-4-carboxy-4-(13-carboxytridecanoyl-amino)butanoyl]amino]ethoxy]ethoxy]acetyl]amino]ethoxy]ethoxy]acetyl]amino]-ethylamino]-2-oxoethyl]-Ala[Gln121,Leu168,Cys180]FGF21 (from UniProt Q9NSA1 29-209) (ligand) | 6 | 6 | 6.7 | 106
S{Beta-176}-2-aminoethylsulfanyl-Ala[Gln121,Leu168,Cys176]FGF21 (from UniProt Q9NSA1 29-209) (ligand) |  | 227 | 73 | 84
S{Beta-180}-2-aminoethylsulfanyl-Ala[Gln121,Leu168,Cys180,des181]FGF21 (from UniProt Q9NSA1 29-207) (ligand) |  | 20 | 73 | 72
{Beta-178}-[2-[2-[[2-[2-[2-[[2-[2-[2-[[(4S)-4-carboxy-4-(15-carboxypentadecanoyl-amino)butanoyl]amino]ethoxy]ethoxy]acetyl]amino]ethoxy]ethoxy]acetyl]amino]-ethylamino]-2-oxoethyl]-Ala[Gln121,Leu168,Cys178]FGF21 (from UniProt Q9NSA1 29-209) (ligand) | 137 | 167 | 186 | 59
S{Beta-180}-[2-[2-[[2-[2-[2-[[2-[2-[2-[[(4S)-4-carboxy-4-(19-carboxynonadecanoyl-amino)butanoyl]amino]ethoxy]ethoxy]acetyl]amino]ethoxy]ethoxy]acetyl]amino]-ethylamino]-2-oxoethyl]-Ala[Gln121,Leu168,Cys180]FGF21 (from UniProt Q9NSA1 29-209) (ligand) | 133 | 5 | 24 | 53
S{Beta-180}-[2-[2-[[2-[2-[2-[[2-[2-[2-[[(4S)-4-carboxy-4-(15-carboxypentadecanoyl-amino)butanoyl]amino]ethoxy]ethoxy]acetyl]amino]ethoxy]ethoxy]acetyl]amino]-ethylamino]-2-oxoethyl]-Ala[Gln121,Leu168,Cys180]FGF21 (from UniProt Q9NSA1 29-209) (ligand) | 6 | 4 | 9.1 | 98
20-[[4-[[(1S)-4-[2-[2-[2-[2-[2-[2-[[(1S)-5-[(2-acetamido]-1-carboxy-pentyl]amino]-2-oxo-ethoxy]ethoxy]ethylamino]-2-oxo-ethoxy]ethoxy]ethylamino]-1-carboxy-4-oxo-butyl]carbamoyl]cyclohexyl]methylamino]-20-oxo-icosanoic acid-Ala[Gln121,Leu168,Cys180]FGF21 (from UniProt Q9NSA1 29-209) (ligand) | 35.5 | 4 |  | 
Ala[Gln121,Leu168,Cys177]FGF21 (from UniProt Q9NSA1 29-209) (ligand) |  | 416 |  | 
S{Beta-181}-[2-[2-[[2-[2-[2-[[2-[2-[2-[[(4S)-4-carboxy-4-(13-carboxytridecanoyl-amino)butanoyl]amino]ethoxy]ethoxy]acetyl]amino]ethoxy]ethoxy]acetyl]amino]-ethylamino]-2-oxoethyl]-Ala[Gln121,Leu168,Cys181]FGF21 (from UniProt Q9NSA1 29-208) (ligand) | 41 | 58 | 7.2 | 55
S{Beta-181}-[2-[2-[[2-[2-[2-[[2-[2-[2-[[(4S)-4-carboxy-4-(17-carboxyheptadecanoyl-amino)butanoyl]amino]ethoxy]ethoxy]acetyl]amino]ethoxy]ethoxy]acetyl]amino]-ethylamino]-2-oxoethyl]-Ala[Gln121,Leu168,Cys181]FGF21 (from UniProt Q9NSA1 29-208) (ligand) | 170 | 42 | 56 | 73
12-[[(1S)-4-[2-[2-[2-[2-[2-[2-[[(1S)-5-acetamido-1-carboxy-pentyl]amino]-2-oxo-ethoxy]ethoxy]ethylamino]-2-oxo-ethoxy]ethoxy]ethylamino]-1-carboxy-4-oxo-butyl]amino]-12-oxo-dodecanoic acid-Ala[Gln121,Leu168,Cys180]FGF21 (from UniProt Q9NSA1 29-209) (ligand) | 3.4 | 8.4 |  | 
18-[[4-[[(1S)-4-[2-[2-[2-[2-[2-[2-[[(1S)-5-[(2-acetamido]-1-carboxy-pentyl]amino]-2-oxo-ethoxy]ethoxy]ethylamino]-2-oxo-ethoxy]ethoxy]ethylamino]-1-carboxy-4-oxo-butyl]carbamoyl]cyclohexyl]methylamino]-18-oxo-octadecanoic acid-Ala[Gln121,Leu168,Cys180]FGF21 (from UniProt Q9NSA1 29-209) (ligand) | 14 | 4 |  | 
S{Beta-175}-[2-[2-[[2-[2-[2-[[2-[2-[2-[[(4S)-4-carboxy-4-(15-carboxypentadecanoyl-amino)butanoyl]amino]ethoxy]ethoxy]acetyl]amino]ethoxy]ethoxy]acetyl]amino]-ethylamino]-2-oxoethyl]-Ala[Gln121,Leu168,Cys175]FGF21 (from UniProt Q9NSA1 29-209) (ligand) | 1 | 1 |  | 
20-[[(1S)-4-[2-[2-[2-[2-[2-[2-[[(1S)-5-acetamido-1-carboxy-pentyl]amino]-2-oxo-ethoxy]ethoxy]ethylamino]-2-oxo-ethoxy]ethoxy]ethylamino]-1-carboxy-4-oxo-butyl]amino]-20-oxo-icosanoic acid-Ala[Gln121,Leu168,Cys180]FGF21 (from UniProt Q9NSA1 29-209) (ligand) | 52.5 | 6.1 |  | 
Ala[Gln121,Cys167,Leu168,]FGF21 (from UniProt Q9NSA1 29-209) (ligand) |  | 4 |  | 

From US20180140673A1
